Experiment [1] deals with human parathyroid hormone receptor 1 (human, UniProt Q03431). The experiment can be described thus: cell-based or functional assay.
The target in experiment [2] is human parathyroid hormone receptor 2 (human, UniProt P49190). The experiment can be described thus: cell-based or functional assay.

The results in this text go back to patent US20110195900A1, “PEPTIDIC PTH RECEPTOR AGONISTS” (FERRING B.V., priority 2008, published 2011).

Non-standard residues stand in square brackets, D forms with d. No end group written: not given here. 1Nal = N[C@@H](Cc1cccc2ccccc12)C(=O)O; β3hI = CC[C@H](C)[C@H](N)CC(=O)O; Nle = CCCC[C@H](N)C(=O)O; Aib = CC(C)(N)C(=O)O; βAla = NCCC(=O)O

B1: [Aib^1, Nle^8,18, Ser^10, Lys^16, β-Ala^17, 1-Nal^23, Leu^27, Arg^30, Glu^33, Glu^34] hPTH (1-34)-NH2 (peptide)
peptide: [Aib]VSEIQL[Nle]HSLGKHLK[βAla][Nle]ERVE[1Nal]LRKLLQRVHEE-NH2
With B1, the “hPTHR-1 EC50 (nM), CRE-luciferase reporter gene assay” value (from here on “hPTHR-1 EC50 (nM)”) in experiment [1] worked out at 0.03 nM. For the same molecule, in experiment [2], the “hPTHR-2 EC50 (nM), luciferase reporter gene assay” value (shortened to “hPTHR-2 EC50 (nM)”) came to 7 nM.

B2: [Nle^8, β-hIle^18, 1-Nal^23] hPTH (1-34)-OH (peptide)
peptide: SVSEIQL[Nle]HNLGKHLNS[β3hI]ERVE[1Nal]LRKKLQDVHNF-OH
modifications: N-terminus assumed
SMILES: CCCC[C@H](NC(=O)[C@H](CC(C)C)NC(=O)[C@H](CCC(N)=O)NC(=O)[C@@H](NC(=O)[C@H](CCC(=O)O)NC(=O)[C@H](CO)NC(=O)[C@@H](NC(=O)[C@@H](N)CO)C(C)C)[C@@H](C)CC)C(=O)N[C@@H](Cc1c[nH]cn1)C(=O)N[C@@H](CC(N)=O)C(=O)N[C@@H](CC(C)C)C(=O)NCC(=O)N[C@@H](CCCCN)C(=O)N[C@@H](Cc1c[nH]cn1)C(=O)N[C@@H](CC(C)C)C(=O)N[C@@H](CC(N)=O)C(=O)N[C@@H](CO)C(=O)N[C@H](CC(=O)N[C@@H](CCC(=O)O)C(=O)N[C@@H](CCCNC(=N)N)C(=O)N[C@H](C(=O)N[C@@H](CCC(=O)O)C(=O)N[C@@H](Cc1cccc2ccccc12)C(=O)N[C@@H](CC(C)C)C(=O)N[C@@H](CCCNC(=N)N)C(=O)N[C@@H](CCCCN)C(=O)N[C@@H](CCCCN)C(=O)N[C@@H](CC(C)C)C(=O)N[C@@H](CCC(N)=O)C(=O)N[C@@H](CC(=O)O)C(=O)N[C@H](C(=O)N[C@@H](Cc1c[nH]cn1)C(=O)N[C@@H](CC(N)=O)C(=O)N[C@@H](Cc1ccccc1)C(=O)O)C(C)C)C(C)C)[C@@H](C)CC
As to B2, in experiment [1], the “hPTHR-1 EC50 (nM)” value is 0.21 nM. In experiment [2], the “hPTHR-2 EC50 (nM)” value stood at 26 nM.

B3: [Nle^8, β-hIle^18, 1-Nal^23, Leu^27] hPTH (1-34)-OH (peptide)
peptide: SVSEIQL[Nle]HNLGKHLNS[β3hI]ERVE[1Nal]LRKLLQDVHNF-OH
Regarding B3, in experiment [1], the “hPTHR-1 EC50 (nM)” value was found to be 0.14 nM. Moreover, the “hPTHR-2 EC50 (nM)” value in experiment [2] was 23 nM.

B4: [Aib^1, Nle^8, Glu^10, Lys^16, β-hIle^18, 1-Nal^23, Leu^27, Glu^30, Glu^33, Lys^34] hPTH(1-34)-NH2 (peptide)
peptide: [Aib]VSEIQL[Nle]HELGKHLKS[β3hI]ERVE[1Nal]LRKLLQEVHEK-NH2
Consider B4, for which the “hPTHR-1 EC50 (nM)” value in experiment [1] turned out to be 0.04 nM. Further, the “hPTHR-2 EC50 (nM)” value in experiment [2] was 1 nM.

B5: [Nle^8,18, β-Ala^19, 1-Nal^23] hPTH (1-34)-NH2 (peptide)
peptide: SVSEIQL[Nle]HNLGKHLNS[Nle][βAla]RVE[1Nal]LRKKLQDVHNF-NH2
modifications: N-terminus assumed
SMILES: CCCC[C@H](NC(=O)[C@H](CO)NC(=O)[C@H](CC(N)=O)NC(=O)[C@H](CC(C)C)NC(=O)[C@H](Cc1c[nH]cn1)NC(=O)[C@H](CCCCN)NC(=O)CNC(=O)[C@H](CC(C)C)NC(=O)[C@H](CC(N)=O)NC(=O)[C@H](Cc1c[nH]cn1)NC(=O)[C@H](CCCC)NC(=O)[C@H](CC(C)C)NC(=O)[C@H](CCC(N)=O)NC(=O)[C@@H](NC(=O)[C@H](CCC(=O)O)NC(=O)[C@H](CO)NC(=O)[C@@H](NC(=O)[C@@H](N)CO)C(C)C)[C@@H](C)CC)C(=O)NCCC(=O)N[C@@H](CCCNC(=N)N)C(=O)N[C@H](C(=O)N[C@@H](CCC(=O)O)C(=O)N[C@@H](Cc1cccc2ccccc12)C(=O)N[C@@H](CC(C)C)C(=O)N[C@@H](CCCNC(=N)N)C(=O)N[C@@H](CCCCN)C(=O)N[C@@H](CCCCN)C(=O)N[C@@H](CC(C)C)C(=O)N[C@@H](CCC(N)=O)C(=O)N[C@@H](CC(=O)O)C(=O)N[C@H](C(=O)N[C@@H](Cc1c[nH]cn1)C(=O)N[C@@H](CC(N)=O)C(=O)N[C@@H](Cc1ccccc1)C(N)=O)C(C)C)C(C)C
As to B5, the “hPTHR-1 EC50 (nM)” value in experiment [1] is 0.21 nM. Also, the “hPTHR-2 EC50 (nM)” value in experiment [2] was 11 nM.

B6: [Nle^8, β-hIle^18, 1-Nal^23, Leu^27] hPTH (1-31)-OH (peptide)
peptide: SVSEIQL[Nle]HNLGKHLNS[β3hI]ERVE[1Nal]LRKLLQDV-OH
Take B6: the “hPTHR-1 EC50 (nM)” value in experiment [1] worked out at 0.09 nM. Besides, the “hPTHR-2 EC50 (nM)” value in experiment [2] was found to be 76 nM.
